For one experiment, the target named is Human IgE antibody (human). Put plainly: cell-based or functional assay.
A further experiment addresses IgG1. In words: cell-based or functional assay.

B1: FP183 (Fc fusion)
chain 1: DKTHTCPPCPAPEAAGAPSVFLFPPKPKDTLMISRTPEVTCVVVDVSHEDPEVKFNWYVDGVEVHNAKTKPREEQQNSTYRVVSVLTVLHQDWLNGKEYKCKVSNKALKAPIEKTISKAKGQPREPQVYTLPPSRDELTKNQVSLWCLVKGFYPSDIAVEWESNGQPENNYKTTPPVLDSDGSFFLYSKLTVDKSRWQQGNVFSCSVMHEALHNHYTQKSLSLSPGAEEEKAEEEKAEEEKTALGRRKAEDRIKETLWADGVKIDEKDFEHIKSSHEDYFAVEYGKGSGYYDVNKKMDSEDSALCVGAVVTNMFHWWVDQNRENIEKFKKQDPENNGVMKFEGVKEATVDELNEFYRDNRDNYADQSRFFDLIKKHFGNKALNPEELFELYFNGFYYGSSHRYIEDNEPAQNNLFSKVLENNKLLNPERSYGIDGFSNNVINALKSHKVLGLVYTTPLRYRHIISMWGADIDQDGKVKAIYVTDSDDREITFNDNSKRRIGMIRYDVLVDDNGNIRFTGKGATHKEEGAIYAGLYSLSRGDEVWEDYFKKYPEVQENL
chain 2: DKTHTCPPCPAPEAAGAPSVFLFPPKPKDTLMISRTPEVTCVVVDVSHEDPEVKFNWYVDGVEVHNAKTKPREEQQNSTYRVVSVLTVLHQDWLNGKEYKCKVSNKALKAPIEKTISKAKGQPREPQVYTLPPSRDELTKNQVSLSCAVKGFYPSDIAVEWESNGQPENNYKTTPPVLDSDGSFFLVSKLTVDKSRWQQGNVFSCSVMHEALHNHYTQKSLSLSPG
Turning to B1, in the experiment with Human IgE antibody, the “EC50 CE-SDS IgE” value amounted to 7.63 nM and the “EC50 MSD IgE” value is 0.548 nM.

B2: FP184 (Fc fusion)
chain 1: DKTHTCPPCPAPEAAGAPSVFLFPPKPKDTLMISRTPEVTCVVVDVSHEDPEVKFNWYVDGVEVHNAKTKPREEQQNSTYRVVSVLTVLHQDWLNGKEYKCKVSNKALKAPIEKTISKAKGQPREPQVYTLPPSRDELTKNQVSLWCLVKGFYPSDIAVEWESNGQPENNYKTTPPVLDSDGSFFLYSKLTVDKSRWQQGNVFSCSVMHEALHNHYTQKSLSLSPGEAAAKEAAAKEAAAKTALGRRKAEDRIKETLWADGVKIDEKDFEHIKSSHEDYFAVEYGKGSGYYDVNKKMDSEDSALCVGAVVTNMFHWWVDQNRENIEKFKKQDPENNGVMKFEGVKEATVDELNEFYRDNRDNYADQSRFFDLIKKHFGNKALNPEELFELYFNGFYYGSSHRYIEDNEPAQNNLFSKVLENNKLLNPERSYGIDGFSNNVINALKSHKVLGLVYTTPLRYRHIISMWGADIDQDGKVKAIYVTDSDDREITFNDNSKRRIGMIRYDVLVDDNGNIRFTGKGATHKEEGAIYAGLYSLSRGDEVWEDYFKKYPEVQENL
chain 2: DKTHTCPPCPAPEAAGAPSVFLFPPKPKDTLMISRTPEVTCVVVDVSHEDPEVKFNWYVDGVEVHNAKTKPREEQQNSTYRVVSVLTVLHQDWLNGKEYKCKVSNKALKAPIEKTISKAKGQPREPQVYTLPPSRDELTKNQVSLSCAVKGFYPSDIAVEWESNGQPENNYKTTPPVLDSDGSFFLVSKLTVDKSRWQQGNVFSCSVMHEALHNHYTQKSLSLSPG
In the case of B2, the “EC50 MSD IgE” value with Human IgE antibody is 0.475 nM.

B3: FP191 (Fc fusion)
chain 1: DKTHTCPPCPAPEAAGAPSVFLFPPKPKDTLMISRTPEVTCVVVDVSHEDPEVKFNWYVDGVEVHNAKTKPREEQQNSTYRVVSVLTVLHQDWLNGKEYKCKVSNKALKAPIEKTISKAKGQPREPQVYTLPPSRDELTKNQVSLWCLVKGFYPSDIAVEWESNGQPENNYKTTPPVLDSDGSFFLYSKLTVDKSRWQQGNVFSCSVMHEALHNHYTQKSLSLSPGAPAPAPAPAPAPAPTALGRRKAEDRIKETLWADGVKIDEKDFEHIKSSHEDYFAVEYGKGSGYYDVNKKMDSEDSALCVGAVVTNMFHWWVDQNRENIEKFKKQDPENNGVMKFEGVKEATVDELNEFYRDNRDNYADQSRFFDLIKKHFGNKALNPEELFELYFNGFYYGSSHRYIEDNEPAQNNLFSKVLENNKLLNPERSYGIDGFSNNVINALKSHKVLGLVYTTPLRYRHIISMWGADIDQDGKVKAIYVTDSDDREITFNDNSKRRIGMIRYDVLVDDNGNIRFTGKGATHKEEGAIYAGLYSLSRGDEVWEDYFKKYPEVQENL
chain 2: DKTHTCPPCPAPEAAGAPSVFLFPPKPKDTLMISRTPEVTCVVVDVSHEDPEVKFNWYVDGVEVHNAKTKPREEQQNSTYRVVSVLTVLHQDWLNGKEYKCKVSNKALKAPIEKTISKAKGQPREPQVYTLPPSRDELTKNQVSLSCAVKGFYPSDIAVEWESNGQPENNYKTTPPVLDSDGSFFLVSKLTVDKSRWQQGNVFSCSVMHEALHNHYTQKSLSLSPG
For the molecule B3, in the experiment with Human IgE antibody, the “EC50 CE-SDS IgE” value came to 1.51 nM and the “EC50 MSD IgE” value stood at 0.555 nM.

B4: FP16 (Fc fusion)
chain: DKTHTCPPCPAPEAAGAPSVFLFPPKPKDTLMISRTPEVTCVVVDVSHEDPEVKFNWYVDGVEVHNAKTKPREEQQNSTYRVVSVLTVLHQDWLNGKEYKCKVSNKALKAPIEKTISKAKGQPREPQVYTLPPSRDELTKNQVSLTCLVKGFYPSDIAVEWESNGQPENNYKTTPPVLDSDGSFFLYSKLTVDKSRWQQGNVFSCSVMHEALHNHYTQKSLSLSPGGGGSGGGGSGGGGSTALGRRKAEDRIKETLWADGVKIDEKDFEHIKSSHEDYFAVEYGKGSGYYDVNKKMDSEDTALCVGAVVTNMFHWWVDQNRENIEKFKKQDPENNGVMKFNGVKEATVDELNHFYKEYQSNKYADQSRFFDLIKKHFGNKALNPEELFELYFNGFYYGSSHRYIEDNKPAQNNLFSKVLENNKLLNPERSYGIDGFSNNVINALKSHKVLGLVHTTPLRYRHIISMWGADIDQDGKVKAIYVTDSDDREITFNDNSKRRIGMIRYDVLVDDNGNIRFTGKGATHKEEGAIYAGLYSLSRGDEVWEDYFKKYPEVQENL
As to B4, the “EC50 CE-SDS IgG1” value with IgG1 was determined as 8720 nM. Moreover, in the experiment with Human IgE antibody, the “EC50 CE-SDS IgE” value was determined as 47 nM.

B5: FP13 (Fc fusion)
chain: DKTHTCPPCPAPEAAGAPSVFLFPPKPKDTLMISRTPEVTCVVVDVSHEDPEVKFNWYVDGVEVHNAKTKPREEQQNSTYRVVSVLTVLHQDWLNGKEYKCKVSNKALKAPIEKTISKAKGQPREPQVYTLPPSRDELTKNQVSLTCLVKGFYPSDIAVEWESNGQPENNYKTTPPVLDSDGSFFLYSKLTVDKSRWQQGNVFSCSVMHEALHNHYTQKSLSLSPGGGGSGGGGSGGGGSTALGRRKAEDRIKETLWADGVKIDEKDFEHIKSSHEDYFAVEYGKGSGYYDVNKKMDSEDSALCVGAVVTNMFHWWVDQNRENIEKFKKQDPENNGVMKFEGVKEATVDELNHFYRDNRDNYADQSRFFDLIKKHFGNKALNPEELFELYFNGFYYGSSHRYIEDNEPAQNNLFSKVLENNKLLNPERSYGIDGFSNNVINALKSHKVLGLVHTTPLRYRHIISMWGADIDQDGKVKAIYVTDSDDREITFNDNSKRRIGMIRYDVLVDDNGNIRFTGKGATHKEEGAIYAGLYSLSRGDEVWEDYFKKYPEVQENL
B5: in the experiment with IgG1, the “EC50 CE-SDS IgG1” value worked out at 21300 nM. Moreover, the “EC50 CE-SDS IgE” value in the experiment with Human IgE antibody turned out to be 31.9 nM.

B6: FP19 (Fc fusion)
chain: DKTHTCPPCPAPEAAGAPSVFLFPPKPKDTLMISRTPEVTCVVVDVSHEDPEVKFNWYVDGVEVHNAKTKPREEQQNSTYRVVSVLTVLHQDWLNGKEYKCKVSNKALKAPIEKTISKAKGQPREPQVYTLPPSRDELTKNQVSLTCLVKGFYPSDIAVEWESNGQPENNYKTTPPVLDSDGSFFLYSKLTVDKSRWQQGNVFSCSVMHEALHNHYTQKSLSLSPGGGGSGGGGSGGGGSTALGRRKAEDRIKETLWADGVKIDEKDFEHIKSSHEDYFAVEYGKGSGYYDVNKKMDSEDSALCVGAVVTNMFHWWVDQNRENIEKFKKQDPENNGVMKFEGVKEATVDELNHFYRDNRDNYADQSRFFDLIKKHFGNKALNPEELFELYFNGFYYGSSHRYIEDNEPAQNNLFSKVLENNKLLNPERSYGIDGFSNNVINALKSHKVLGLVYTTPLRYRHIISMWGADIDQDGKVKAIYVTDSDDREITFNDNSKRRIGMIRYDVLVDDNGNIRFTGKGATHKEEGAIYAGLYSLSRGDEVWEDYFKKYPEVQENL
With B6, in the experiment with IgG1, the “EC50 CE-SDS IgG1” value was 7240 nM. Moreover, in the experiment with Human IgE antibody, the “EC50 CE-SDS IgE” value is 21.8 nM and the “EC50 MSD IgE” value was 1.2 nM.

B7: FP178 (Fc fusion)
chain: TALGRRKAEDRIKETLWADGVKIDEKDFEHIKSSHEDYFAVEYGKGSGYYDVNKKMDSEDSALCVGAVVTNMFHWWVDQNRENIEKFKKQDPENNGVMKFEGVKEATVDELNEFYRDNRDNYADQSRFFDLIKKHFGNKALNPEELFELYFNGFYYGSSHRYIEDNEPAQNNLFSKVLENNKLLNPERSYGIDGFSNNVINALKSHKVLGLVYTTPLRYRHIISMWGADIDQDGKVKAIYVTDSDDREITFNDNSKRRIGMIRYDVLVDDNGNIRFTGKGATHKEEGAIYAGLYSLSRGDEVWEDYFKKYPEVQENLDKTHTCPPCPAPEAAGAPSVFLFPPKPKDTLMISRTPEVTCVVVDVSHEDPEVKFNWYVDGVEVHNAKTKPREEQQNSTYRVVSVLTVLHQDWLNGKEYKCKVSNKALKAPIEKTISKAKGQPREPQVYTLPPSRDELTKNQVSLTCLVKGFYPSDIAVEWESNGQPENNYKTTPPVLDSDGSFFLYSKLTVDKSRWQQGNVFSCSVMHEALHNHYTQKSLSLSPG
Take B7: in the experiment with Human IgE antibody, the “EC50 CE-SDS IgE” value was determined as 2.61 nM and the “EC50 MSD IgE” value came to 0.317 nM.

B8: FP179 (Fc fusion)
chain 1: TALGRRKAEDRIKETLWADGVKIDEKDFEHIKSSHEDYFAVEYGKGSGYYDVNKKMDSEDSALCVGAVVTNMFHWWVDQNRENIEKFKKQDPENNGVMKFEGVKEATVDELNEFYRDNRDNYADQSRFFDLIKKHFGNKALNPEELFELYFNGFYYGSSHRYIEDNEPAQNNLFSKVLENNKLLNPERSYGIDGFSNNVINALKSHKVLGLVYTTPLRYRHIISMWGADIDQDGKVKAIYVTDSDDREITFNDNSKRRIGMIRYDVLVDDNGNIRFTGKGATHKEEGAIYAGLYSLSRGDEVWEDYFKKYPEVQENLDKTHTCPPCPAPEAAGAPSVFLFPPKPKDTLMISRTPEVTCVVVDVSHEDPEVKFNWYVDGVEVHNAKTKPREEQQNSTYRVVSVLTVLHQDWLNGKEYKCKVSNKALKAPIEKTISKAKGQPREPQVYTLPPSRDELTKNQVSLWCLVKGFYPSDIAVEWESNGQPENNYKTTPPVLDSDGSFFLYSKLTVDKSRWQQGNVFSCSVMHEALHNHYTQKSLSLSPG
chain 2: DKTHTCPPCPAPEAAGAPSVFLFPPKPKDTLMISRTPEVTCVVVDVSHEDPEVKFNWYVDGVEVHNAKTKPREEQQNSTYRVVSVLTVLHQDWLNGKEYKCKVSNKALKAPIEKTISKAKGQPREPQVYTLPPSRDELTKNQVSLSCAVKGFYPSDIAVEWESNGQPENNYKTTPPVLDSDGSFFLVSKLTVDKSRWQQGNVFSCSVMHEALHNHYTQKSLSLSPG
Regarding B8, in the experiment with Human IgE antibody, the “EC50 CE-SDS IgE” value was found to be 6.64 nM and the “EC50 MSD IgE” value was determined as 0.424 nM.
